± gives the standard deviation of the averaged measurements.
System: Saccharomyces cerevisiae
Assay: protein stability index of tFT-peptide fusion (C-terminal peptide) (PSI (0-1 scale)); higher = more stable (slower turnover)
Conditions: temperature: 30 C
Procedure: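 MPS profiling in S. cerevisiae of the yeast C-terminome library: the last 12 aa of each annotated ORF are fused to the C-terminus of a sfGFP-mCherry timer, after a GGGS linker. Cells are FACS-sorted into 8 mCherry/sfGFP bins and deep-sequenced. PSI runs from 0 (unstable) to 1 (stable); wild type and das1Δ backgrounds, two technical replicates each.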

[1] = genetic background: das1 deletion

SGSGVHVIKRVG [ESS1 C-terminal 12 aa]
protein stability index [1]: 0.701 ± 0.0075 | protein stability index (genetic background: wild type): 0.65 ± 0.019

SGWSNFEDFFSR [YKL222C C-terminal 12 aa]
protein stability index [1]: 0.744 ± 0.021 | protein stability index (genetic background: wild type): 0.77 ± 0.019

SIKLTFGFGAVL [AHA1 C-terminal 12 aa]
protein stability index [1]: 0.6981 ± 0.0022 | protein stability index (genetic background: wild type): 0.711 ± 0.0087

SIQWIWRYSFVY [YIR020C C-terminal 12 aa]
protein stability index [1]: 0.464 ± 0.0072 | protein stability index (genetic background: wild type): 0.44 ± 0.025

SKDLGNVLTNLL [ESF2 C-terminal 12 aa]
protein stability index [1]: 0.6902 ± 0.005 | protein stability index (genetic background: wild type): 0.679 ± 0.035

SKFIEKFQDIVS [MED1 C-terminal 12 aa]
protein stability index [1]: 0.701 ± 0.014 | protein stability index (genetic background: wild type): 0.712 ± 0.018

SKKNVLYQKKNN [RTT107 C-terminal 12 aa]
protein stability index [1]: 0.69 ± 0.0099 | protein stability index (genetic background: wild type): 0.286 ± 0.014

SKLVKEYSVELR [MSF1 C-terminal 12 aa]
protein stability index [1]: 0.687 ± 0.019 | protein stability index (genetic background: wild type): 0.663 ± 0.05

SKNTREEKPTEL [MMM1 C-terminal 12 aa]
protein stability index [1]: 0.698 ± 0.011 | protein stability index (genetic background: wild type): 0.688 ± 0.018

SKPALGTCLYEQ [GAL3 C-terminal 12 aa]
protein stability index [1]: 0.676 ± 0.0096 | protein stability index (genetic background: wild type): 0.665 ± 0.03

SLEKLEMSKYGL [YKL033W-A C-terminal 12 aa]
protein stability index [1]: 0.6995 ± 0.0021 | protein stability index (genetic background: wild type): 0.6694 ± 0.004

SLRSFFVKQKVL [ERP6 C-terminal 12 aa]
protein stability index [1]: 0.641 ± 0.0083 | protein stability index (genetic background: wild type): 0.185 ± 0.025

SLSARKINMRKV [KRE9 C-terminal 12 aa]
protein stability index [1]: 0.705 ± 0.033 | protein stability index (genetic background: wild type): 0.644 ± 0.014

SMALRTVSILEN [YGL152C C-terminal 12 aa]
protein stability index [1]: 0.683 ± 0.011 | protein stability index (genetic background: wild type): 0.649 ± 0.025

SMKYPHTAALVR [YLR111W C-terminal 12 aa]
protein stability index [1]: 0.578 ± 0.027 | protein stability index (genetic background: wild type): 0.653 ± 0.072

SNGFKEWRKSLK [RAI1 C-terminal 12 aa]
protein stability index [1]: 0.6824 ± 0.0012 | protein stability index (genetic background: wild type): 0.67 ± 0.02

SNSSSSQKAAKE [HST2 C-terminal 12 aa]
protein stability index [1]: 0.71 ± 0.033 | protein stability index (genetic background: wild type): 0.651 ± 0.024

SNWARIFFCHHD [YDL186W C-terminal 12 aa]
protein stability index [1]: 0.75 ± 0.015 | protein stability index (genetic background: wild type): 0.713 ± 0.028

SPSPKPQHRRKR [ELO2 C-terminal 12 aa]
protein stability index [1]: 0.734 ± 0.025 | protein stability index (genetic background: wild type): 0.704 ± 0.029

SQLLLFGFGAMV [MDM32 C-terminal 12 aa]
protein stability index [1]: 0.6998 ± 0.0031 | protein stability index (genetic background: wild type): 0.705 ± 0.031

SQSCPFFPLMDD [YDR246W-A C-terminal 12 aa]
protein stability index [1]: 0.738 ± 0.012 | protein stability index (genetic background: wild type): 0.7463 ± 0.0073

SQSKIKAKIRPE [YJL193W C-terminal 12 aa]
protein stability index [1]: 0.7134 ± 0.0044 | protein stability index (genetic background: wild type): 0.666 ± 0.011

SRFLKRKSHHDK [SEC1 C-terminal 12 aa]
protein stability index [1]: 0.687 ± 0.0091 | protein stability index (genetic background: wild type): 0.723 ± 0.049

SRIELELKNIGL [ECM29 C-terminal 12 aa]
protein stability index [1]: 0.684 ± 0.0096 | protein stability index (genetic background: wild type): 0.762 ± 0.0041

SRILQYKCIFTY [ARP8 C-terminal 12 aa]
protein stability index [1]: 0.517 ± 0.023 | protein stability index (genetic background: wild type): 0.2402 ± 0.0014

SRTPPARRQRHR [CWC22 C-terminal 12 aa]
protein stability index [1]: 0.7133 ± 0.0015 | protein stability index (genetic background: wild type): 0.671 ± 0.012

SSDEEENEKELP [PWP2 C-terminal 12 aa]
protein stability index [1]: 0.67854 ± 0.00042 | protein stability index (genetic background: wild type): 0.705 ± 0.039

SSKAIQGNFDDL [SPB4 C-terminal 12 aa]
protein stability index [1]: 0.704 ± 0.018 | protein stability index (genetic background: wild type): 0.714 ± 0.047

SSLDEVLAKDKD [MIN8 C-terminal 12 aa]
protein stability index [1]: 0.736 ± 0.018 | protein stability index (genetic background: wild type): 0.6795 ± 0.0061

SSSSFISYPPQR [MAD3 C-terminal 12 aa]
protein stability index [1]: 0.728 ± 0.019 | protein stability index (genetic background: wild type): 0.6977 ± 0.0019

STAVRSIDALKN [HSP31 C-terminal 12 aa]
protein stability index [1]: 0.701 ± 0.042 | protein stability index (genetic background: wild type): 0.687 ± 0.0074

STERAKELLESN [MRF1 C-terminal 12 aa]
protein stability index [1]: 0.666 ± 0.026 | protein stability index (genetic background: wild type): 0.69 ± 0.033

STGSETKIADCR [HSM3 C-terminal 12 aa]
protein stability index [1]: 0.683 ± 0.01 | protein stability index (genetic background: wild type): 0.695 ± 0.021

STSGESFTETQF [ICL2 C-terminal 12 aa]
protein stability index [1]: 0.6971 ± 0.0022 | protein stability index (genetic background: wild type): 0.73 ± 0.054

STTIRAINALYS [HSP32 C-terminal 12 aa]
protein stability index [1]: 0.675 ± 0.017 | protein stability index (genetic background: wild type): 0.65 ± 0.037

SVFGEAEEVTNW [MET2 C-terminal 12 aa]
protein stability index [1]: 0.701 ± 0.017 | protein stability index (genetic background: wild type): 0.702 ± 0.031

SVTSKFKKYPYK [BET2 C-terminal 12 aa]
protein stability index [1]: 0.7131 ± 0.0021 | protein stability index (genetic background: wild type): 0.634 ± 0.026

SWISKEKRVSEE [HXT2 C-terminal 12 aa]
protein stability index [1]: 0.731 ± 0.032 | protein stability index (genetic background: wild type): 0.809 ± 0.04

SWLYNFDELLWQ [ALG8 C-terminal 12 aa]
protein stability index [1]: 0.761 ± 0.011 | protein stability index (genetic background: wild type): 0.727 ± 0.021

SYNDPALADFMP [NRE1 C-terminal 12 aa]
protein stability index [1]: 0.7154 ± 0.007 | protein stability index (genetic background: wild type): 0.744 ± 0.039

TAEPNRNVNQMP [YDL218W C-terminal 12 aa]
protein stability index [1]: 0.678 ± 0.017 | protein stability index (genetic background: wild type): 0.662 ± 0.013

From the supplement of paper PMC10724198
